In patent US20260234247A1 (published 2026):

How the values were obtained:
[1] = target: T1, human LILRB1 (human, UniProt Q8NHL6 24-458, limits assumed); experiment: Octet off-rate ranking;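 further: antibody dissociation rate constants against cynomolgus LILRB2 plus human LILRB1, LILRB2, LILRA1 and LILRA2, measured on an Octet instrument to rank binding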
T1 construct: also called hLILRB1
Excerpt: Binding affinity of anti-LILRB1 and anti-LILRB2 antibodies against human LILRB1, LILRB2, LILRA1, LILRA2 and cynomolgus LILRB2 was ranked by measuring dissociation rate constant (Kdis) using the Octet system.

[2] = target: T2, human LILRB1 on CHOK1 cells (human, UniProt Q8NHL6 24-650); experiment: FACS binding, CHOK1-hLILRB1 cells
T2 construct: whole, on cells; also called CHOK1-hLILRB1; CHOK1-LILRB1
T2 sequence (Q8NHL6 24-650): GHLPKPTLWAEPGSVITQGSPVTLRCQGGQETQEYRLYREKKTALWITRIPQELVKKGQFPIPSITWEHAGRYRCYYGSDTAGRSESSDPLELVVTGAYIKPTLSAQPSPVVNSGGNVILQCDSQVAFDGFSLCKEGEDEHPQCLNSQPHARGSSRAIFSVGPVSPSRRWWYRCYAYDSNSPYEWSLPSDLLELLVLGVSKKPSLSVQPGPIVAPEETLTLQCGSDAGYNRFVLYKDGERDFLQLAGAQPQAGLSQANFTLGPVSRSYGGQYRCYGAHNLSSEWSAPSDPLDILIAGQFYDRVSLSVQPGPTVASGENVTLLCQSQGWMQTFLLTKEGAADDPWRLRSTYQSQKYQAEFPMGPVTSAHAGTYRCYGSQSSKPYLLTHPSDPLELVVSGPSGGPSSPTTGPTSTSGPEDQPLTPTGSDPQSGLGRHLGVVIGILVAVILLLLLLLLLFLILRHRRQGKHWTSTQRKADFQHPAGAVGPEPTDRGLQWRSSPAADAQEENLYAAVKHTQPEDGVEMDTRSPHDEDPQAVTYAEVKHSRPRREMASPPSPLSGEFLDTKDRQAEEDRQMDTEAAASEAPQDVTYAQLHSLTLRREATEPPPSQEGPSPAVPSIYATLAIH

[3] = target: T3, human LILRB2 on CHOK1 cells (human, UniProt Q8N423 22-597); experiment: FACS binding, CHOK1-hLILRB2 cells
T3 construct: whole, on cells; also called CHOK1-hLILRB2; CHOK1-LILRB2
T3 sequence (Q8N423 22-597): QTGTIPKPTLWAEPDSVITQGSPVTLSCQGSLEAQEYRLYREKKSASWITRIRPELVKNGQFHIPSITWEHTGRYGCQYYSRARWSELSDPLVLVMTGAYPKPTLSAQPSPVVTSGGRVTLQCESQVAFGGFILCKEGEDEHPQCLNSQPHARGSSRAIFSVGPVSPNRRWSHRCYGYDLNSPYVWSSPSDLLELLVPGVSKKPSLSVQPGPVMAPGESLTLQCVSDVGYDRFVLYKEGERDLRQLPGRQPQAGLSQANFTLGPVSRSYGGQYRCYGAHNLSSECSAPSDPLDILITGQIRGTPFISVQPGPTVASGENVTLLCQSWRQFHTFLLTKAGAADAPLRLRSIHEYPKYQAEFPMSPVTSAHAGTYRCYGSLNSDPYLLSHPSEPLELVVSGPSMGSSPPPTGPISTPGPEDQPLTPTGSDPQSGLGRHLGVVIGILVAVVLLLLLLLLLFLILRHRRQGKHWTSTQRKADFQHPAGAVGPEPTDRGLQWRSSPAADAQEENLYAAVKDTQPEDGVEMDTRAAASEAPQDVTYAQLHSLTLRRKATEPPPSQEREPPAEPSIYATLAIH

[4] = target: T2, human LILRB1 on CHOK1 cells; experiment: cell-based RBA (FACS): blocking of HLA-G binding to CHOK1-hLILRB1 cells

T1 sequence (Q8NHL6 24-458 limits assumed): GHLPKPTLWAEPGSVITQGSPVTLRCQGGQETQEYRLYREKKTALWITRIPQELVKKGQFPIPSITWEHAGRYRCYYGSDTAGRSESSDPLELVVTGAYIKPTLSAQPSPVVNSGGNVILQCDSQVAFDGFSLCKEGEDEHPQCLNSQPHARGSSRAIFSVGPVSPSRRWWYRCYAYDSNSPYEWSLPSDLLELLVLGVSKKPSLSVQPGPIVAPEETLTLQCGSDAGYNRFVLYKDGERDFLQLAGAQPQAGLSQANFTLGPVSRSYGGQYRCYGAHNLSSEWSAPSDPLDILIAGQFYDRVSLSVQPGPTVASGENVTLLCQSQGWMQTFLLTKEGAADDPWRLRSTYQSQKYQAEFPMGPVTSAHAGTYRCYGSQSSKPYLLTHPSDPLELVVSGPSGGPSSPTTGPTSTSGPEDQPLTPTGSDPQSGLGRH

Binder	koff [1] [s⁻¹]	EC50 [2] [nM]	binding result [3]	EC50 [4] [nM]	Top Inhibition (%) [4] [%]
LK-RB1-17 (antibody, human IgG4 S228P, kappa, V domains shown) VH: QVQLQQPGAELVKPGASVKLSCEASGYTFTNYWIHWVKQRPGRGLEWIGRIAPNSGGTKYNEKFKTRATLTVDKASTTAYMQLSSLTSEDSAVYYCARLDGSPYYFDYWGQGTTLTVSS VL: DIVMTQSQKFMSTSIGDRVSVTCKASQNVDTNVAWYQQKPGQSPKALIYSASYRYSGIPDRFTGSGSGTDFTLTISNVQSEDLAEYFCQQYNSYPYTFGGGTKLEIKR	0.000312	–	–	–	–
LK-RB1-8 (antibody, human IgG4 S228P, kappa, V domains shown) VH: QVQLQQSGAELVRPGTSVKVSCKASGYAFSNYLIEWVKQRPGQGLEWIGVINPGSDGSTYNEKFKGKATLTADKSSNTAYMQLSSLTSEDSAVYFCARGDYGRSYGMDYWGQGTSVTVSS VL: DIVMTQSQKFMSTTVGDRVSITCKASQNVGTAVVWYQQKPGQSPKLLIYSASNRYTGVPDRFTGSGSGTDFTLTISNMQSEDLADYFCQQYSSYMYTFGGGTKLEIKR	0.000218	–	–	–	–
LK-RB1-14 (antibody, human IgG4 S228P, kappa, V domains shown) VH: QVTLKESGPGILKPSQTLSLTCSFSGFSLSTSGMGVGWIRQPSGKGLEWLAHIWWDDDKYYNPSLKSQLTISKDTSRNQVFLKITSVDTADTATYYCARTELGRGDSWGQGTSVTVSS VL: DILLTQSPAILSVSPGERVSFSCRASQSIGTSIHWYQQRTNGSPRLLIKYASESISGIPSRFSGSGSGTDFTLSINSVESEDIADYYCQQSYSWPYTFGGGTKLEIKR	0.00131	–	–	–	–
LK-RB1-15 (antibody, human IgG4 S228P, kappa, V domains shown) VH: QVTLKESGPGIVKPSQTLSLTCSFSGFSLSISGTGIGWIRQPSGKGLEWLAHIWWDDDKYYNPSLKSQVTISKDTSTKQVFLNITSVDTADTATYYCTRTELGRGDFWGQGTSVTVSS VL: DILLTQSPAILSVSPGDRVSFSCRASQSIGTNIHWYQRRTNGSPRLLIKYGSESISGIPSRFSGSGTGTDFTLTINSVESEDIADYYCQQSYSWPYTFGGGTKLEIKR	0.000103	–	–	–	–
LK-RB1-6 (antibody, human IgG4 S228P, kappa, V domains shown) VH: QIQLVQSGPELKKPGETVKISCKASGYTFTTYGMSWVKQAPGKDLKWMGWINTFSGVPACADDFQGRFDFSAEPSDSTAHLQINNLKNEDTATYFCARRSYYGSRGWYFDVWGTGTTVTVSS VL: DIVMTQSHKFMSTSVGDRVSITCTASEDVNTAVAWYQQKPGQSPKLLIYWASTRHTGVPDRFTGSGSGTDYTLTISSVQTEDLALYYCQQHYNTPYTFGGGTKLEIKR	0.00059	–	–	–	–
LK-RB1-7 (antibody, human IgG4 S228P, kappa, V domains shown) VH: QIQLVQSGPELKKPGETVKISCKASGYTFTTYGMSWVKQAPGKDLKWMGWINTFSGVPACADDFQGRFDFSAEPSDSTAHLQINNLKNEDTATYFCARRSYYGSRGWYFDVWGTGTTVTVSS VL: DVQMIQSPSSLSASLGDIVTMTCQASQDTTINLNWFQQKPGKVPKLLIYGASNLEDGVPSRFSGSSFGTDFTLTISSLEDEDMATYFCLQHTYLPRTFGGGTKLEIRR	0.00059	–	–	–	–
LK-RB1-18 (antibody, human IgG4 S228P, kappa, V domains shown) VH: QVQLKESGPGLVAPSQSLSITCTVSGFSLTNSGVTWIRQPPGKGLEWLGVIWGDGSTNYHSALISRLSISKDNSKSQVFLKLNSLQTDDTATYYCAKPHWDYYNMDYWGQGTSVTVSS VL: DIQMTQTPSSLSASLGDRVTISCRASQDISNYLNWYQQKPDGTVKLLIYFTSRLHSGVPSRFSGSGSGTDYSLTISNLEQEDFATYFCQQGITLPLTFGAGTKLELKR	8.15e-05	–	–	–	–
LK-RB1-19 (antibody, human IgG4 S228P, kappa, V domains shown) VH: QVQLKESGPGLVAPSQNLSITCTVSGFSLTSYGVSWVRQPPGKGLEWLGIIWGDGNTDYHSALISRLSIRKDNSKSQVFLKLNSLKSDDTATYYCAKPHWEYYTMDYWGQGTSVTVSS VL: DIQMTQTTSSLSASLGDRVTISCRASQDISNFLNWYQQKPDGTVKLLIYSTSRLHSGVPSRFSGSGSGTDYSLTIANLEQEDVATYFCQQGNTLPLTFGAGTKLELKR	4.78e-05	–	–	–	–
LK-RB1-55 (antibody, human IgG4 S228P, kappa, V domains shown) VH: EVKLVESGGGLVQPGGSLKLSCAASGFTFSDYYMYWVRQTPEKRLEWVAYISNGGDITFYPDTVKGRFTISRDNARSTLYLQMSRLKSEDTAIYYCASATTEVGAMDHWGQGTSVTVSS VL: DIVMTQSQKFMSTTVGDRVSITCKASQNVGTAVAWYQQKPGKSPKLLIYAASNRYTGVPDRFTGSGSGTDFTLTISNMQSEDLADYFCQQYSSYRTFGGGTNLEIKR	–	1.68	no binding	1.26	92.6
LK-RB1-2 (antibody, human IgG4 S228P, kappa, V domains shown) VH: QIQLVQSGPELKKPGETVKISCKASGYTFTTYGVSWVKQAPGKGLKWMGWINTYSGVSTYSDDFKGRFAFSLETSASTAYLQIINLKNEDAATYFCSRRRRTYDGYLSFDYWGQGTTLTVSS VL: DIQMTQSPGSLSASVGETVTITCGASENIYGALNWFQRKPGKSPQLLIYGATNLADGMSSRFSGSGSGRQYSLQISSLRPDDVATYYCQNVLTTPWTFGGGTKVEIKR	0.000118	–	–	–	–
LK-RB1-4 (antibody, human IgG4 S228P, kappa, V domains shown) VH: QVQLQQPGAELVKPGASVKLPCKTSGYTFTSYWMHWVKQRPGRGLEWIGRIDPHYSGTKYNEKFKNKATMTVDTPSSTAYMQLSSLTSEDSAVYYCARFDGDPYYFDYWGPGTTLTVSS VL: DIVMTQSQKFMSTSVGDRVSVTCKASQNVGTNVAWYKQKAGQSPKAVIYSASYRYSGVPDRFTGSGSGTDFTLSISNVQSEDLAEYFCQQYNNNPFTFGSGTKLEIKR	2.79e-05	–	–	–	–
LK-RB1-3 (antibody, human IgG4 S228P, kappa, V domains shown) VH: QVQLQQPGAELVKPGTSVNLSCKASGYTFTSYWIHWVKQRPGRGLEWIGRINPYSSGTRYNEKFKNKATLTVDKPSSTAYMQLTSLTSEDSAVYYCARFDGAPDYFDFWGQGTTLTVSS VL: DIVMTQSQKFMPTSVGDRVNVTCKASQNVGINVAWYQQKLGQSPKALIYSASYRYSGVPDRFTGSGSGTDFTLTINSVQSEDLADYFCQQYNNYPFTFGSGTKLEIKR	5.24e-05	–	–	–	–

Now from value to binder:

koff [1] [s⁻¹]	EC50 [2] [nM]	binding result [3]	EC50 [4] [nM]	Top Inhibition (%) [4] [%]	Binder
0.000141	–	–	–	–	LK-RB1-20 (antibody, human IgG4 S228P, kappa) heavy: not shown light: DIQMNQSPSSLSASLGDTITITCHASQNIDFWLSWYQQKPGNIPKLLIYKASNLHTGVPSRFSGSGSGTGFTLTISSLQPEDIATYYCQQGQSYPLTFGAGTKLELKRTVAAPSVFIFPPSDEQLKSGTASVVCLLNNFYPREAKVQWKVDNALQSGNSQESVTEQDSKDSTYSLSSTLTLSKADYEKHKVYACEVTHQGLSSPVTKSFNRGEC
–	0.71	no binding	2.01	75.7	LK-RB1-53 (antibody, human IgG4 S228P, kappa) heavy: not shown light: DIVMTQSQKFMSTTVGDRVSITCKASQNVGTAVAWYQQKPGQSPKLLIYSASNRYTGVPDRFTGSDSGTDFTLTINNIQSEDLADYFCQQYSSYPLTFATGTKLELKRTVAAPSVFIFPPSDEQLKSGTASVVCLLNNFYPREAKVQWKVDNALQSGNSQESVTEQDSKDSTYSLSSTLTLSKADYEKHKVYACEVTHQGLSSPVTKSFNRGEC
4.02e-05	–	–	–	–	LK-RB1-21 (antibody, human IgG4 S228P, kappa, V domains shown) VH: QVQLQQPGAELVKPGASVKMSCKASGYIFTDYWTTWVKQRPGQGLEWIGDIYPVSGSTNYNEKFKNKATLTVDTSSSTAYMQLSSLTSEDSAVYYCARALGRRYYFDYWGQGTTLTVSS VL: DIVMTQSHKFMSTSIGDRVSITCKASQDVSTAVAWCQQKPGQSPKSLIYSASYRYTGIPDRFTGSGSGTDFTFTISSVQAEDLAVYYCQQHYTNPVTFGTGTKLELKR
–	2.05	no binding	2.32	91.4	LK-RB1-49 (antibody, human IgG4 S228P, kappa, V domains shown) VH: QIQLVQSGPELKKPGETVKISCKASGYTFTTYGMSWVKQAPGKGLKWMGWINTYSGVPTYADDFKGRFAFSLETSGSTAYLQISNLKNEDTATYFCSRLFRSWDSYAMDYWGQGTSVTVSS VL: DIVMTQSQKFMSATVGDRVSITCKASQNVGTAVAWYQQKPGQSPKLLIYSPSNRYTGVPDRFTGSGSGTHFTLTINNMQSEDLADYFCQQYSTYPLTFGAGTKLELNR
–	1.78	no binding	1.67	90	LK-RB1-57 (antibody, human IgG4 S228P, kappa, V domains shown) VH: EVKLVESGGGLVQPGGSLKLSCAASGFTFSDYYMYWVRQTPEKRLEWVAYISNGGDITFYPDTVKGRFTISRDNARSTLYLQTSRLKSEDTAIYYCASATTEVGAMDHWGQGTSVTVSS VL: DIVMTQSQKFMSTTVGDRVSITCKASQNVGTAVAWYQQKPGKSPKLLIYAASNRYTGVPDRFTGSGSGTDFTLTISNVQSEDLADYFCQQYSSYRTFGGGTSLEIKR
–	1.06	no binding	1	86.7	LK-RB1-48 (antibody, human IgG4 S228P, kappa, V domains shown) VH: EVKLVESGGGLVQPGGSLKLSCAASGFTFSDYYMYWVRQTPEKRLEWVAYISNGGGISFYPDTVKGRFTISRDNAKNTLYLQMSRLKSEDTAIYYCASATKEVGAMDYWGQGTSVTVSS VL: DIVMTQSQKFLSTTVGDRVSITCKASQNVGTAVAWYQQKPGQSPKILIYSASNRYTGVPDRFTGSGSGTDFTLTISNMQSEDLADYFCQQYSSYRTFGGGTKLEIKR
–	1.8	no binding	2.25	89.7	LK-RB1-52 (antibody, human IgG4 S228P, kappa, V domains shown) VH: EVKLVESGGGLVQPGGSLKLSCAASGFIFSDYYMYWVRQTPEKRLEWVAYISNGGDITYYPDTVKGRFTISRDIARNTLFLQMGRLKSEDTAMYYCASATTEVGAMDHWGQGTSVTVSS VL: DIVMTQSQKFMSTTVGDRVSITCKASQNVGTAVAWYQQKPGQSPKLLIYAASNRYTGVPDRFTGSGSGTDFTLTISNMQSEDLADYFCQQYRSYRTFGGGTNLEIKR
–	1.13	no binding	1.59	99	LK-RB1-47 (antibody, human IgG4 S228P, kappa, V domains shown) VH: QIQLVQSGPELKKPGETVKISCKASGYTFTTYGMSWVKQAPGKGLKWMGWINTYSGVPTYTDDFKGRFAFSVETSASTAYLQINNLKNEDTATYFCARRERDFYGNIFFPYWGQGSLVTVSA VL: DIQMTQTTSSLSASLGDRVTISCRASQDISNYLNWYQQKPDGTVKLLIYYTSRIHSGVPSRFSGSGSGTDFSLTISNLDQEDIATYFCQQGHTLPWTFGGGTKVEIKR
